Consider four molecules from patent US20200347130A1 (JIANGSU HENGRUI MEDICINE, published 2020).

For assay [1], the target named is T1, CD96 epitope peptide #2 (32-51) (human).
T1 peptide: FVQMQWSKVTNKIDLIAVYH
Nature of the assay: peptide ELISA ('-' indicates no binding, table note). Here is the method:
(§1) The epitopes recognized by anti-CD96 antibody were detected by the assay of binding the antibody to different polypeptide fragments of CD96 protein. The fragments of different polypeptides of the CD96 antigen were coated on the microtiter plate. The signal density after the antibody was added was used to judge the binding activity of the antibody and the polypeptide. The specific experimental method is as follows:
(§2) The polypeptides were diluted to a concentration of 20 μg/ml with PBS buffer (Shanghai Yuanpei Biotechnology Co., Ltd. Cat No. B320), pH 7.4, added to a 96-well microtiter plate (Corning, Cat No. CLS3590-100EA) at a volume of 50 μl/well, and coated at 4° C. overnight. After discarding the liquid, 250 μl/well of 5% skim milk (BD skim milk, Cat No. 232100) blocking solution diluted with PBS was added, and the plate was incubated in an incubator at 37° C. for 3 hours. After blocking, the blocking solution was discarded, and the plate was washed 5 times with PBST buffer (pH 7.4 PBS containing 0.05% tween-20). 50 μl/well of different concentrations of the antibodies to be tested (hybridoma purification antibody or humanized antibody) diluted with sample dilution was added, and the plate was incubated in an incubator at 37° C. for 2 hours. […] After washing the plate 5 times with PBST, 50 μl/well of TMB chromogenic substrate (KPL, Cat No. 52-00-03) was added, the plate was incubated at room temperature for 5-15 min, followed by adding 50 μl/well of 1M H₂SO₄ to stop the reaction. The absorption value was read at 450 nm with a microplate reader (Thermo Scientific MuLtiskan MK3), and the epitopes that CD96 antibody can recognize were analyzed.

For assay [2], the target named is T2, CD96 epitope peptide #20 (295-314) (human).
T2 peptide: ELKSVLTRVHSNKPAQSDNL
The description is as above. The protocol: as §1, §2

The target of assay [3] is T3, CD96 epitope peptide #17 (250-269) (human).
T3 peptide: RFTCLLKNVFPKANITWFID
The assay is described as above. The protocol: as §1, §2

For assay [4], the target named is T4, CD96 epitope peptide #22 (325-344) (human).
T4 peptide: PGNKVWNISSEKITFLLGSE
Described as above. Here is the method: as §1, §2

Assay [5] deals with T5, CD96 epitope peptide #11 (166-185) (human).
T5 peptide: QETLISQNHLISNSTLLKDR
The description is as above. Here is the method: as §1, §2

Assay [6] deals with T6, CD96 epitope peptide #12 (181-200) (human).
T6 peptide: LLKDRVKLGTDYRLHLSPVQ
Described as above. The protocol: as §1, §2

Assay [7] has as its target T7, CD96 epitope peptide #8 (122-141) (human).
T7 peptide: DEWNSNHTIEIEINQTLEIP
Described as above. The protocol:
as §1, §2

The target of assay [8] is T8, CD96 epitope peptide #6 (92-111) (human).
T8 peptide: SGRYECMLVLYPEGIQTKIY
Described as above. Here is the method: as §1, §2

In assay [9] the target is T9, CD96 epitope peptide #5 (77-86) (human).
T9 peptide: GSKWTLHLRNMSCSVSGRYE
Described as above. Here is the method:
as §1, §2

Assay [10] deals with T10, CD96 epitope peptide #1 (17-36) (human).
T10 peptide: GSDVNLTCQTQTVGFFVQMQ
The description is as above. The protocol: as §1, §2

In assay [11] the target is T11, CD96 epitope peptide #15 (220-239) (human).
T11 peptide: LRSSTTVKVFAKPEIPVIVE
The assay is described as above. Here is the method:
as §1, §2

For assay [12], the target named is T12, CD96 epitope peptide #16 (235-254) (human).
T12 peptide: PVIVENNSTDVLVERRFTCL
The assay is described as above. The protocol: as §1, §2

Assay [13] concerns the target T13, CD96 epitope peptide #14 (211-230) (human).
T13 peptide: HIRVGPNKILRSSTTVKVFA
Described as above. Here is the method:
as §1, §2

The target of assay [14] is T14, CD96 epitope peptide #13 (196-215) (human).
T14 peptide: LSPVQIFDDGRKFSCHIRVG
The assay is described as above. The protocol:
as §1, §2

In assay [15] the target is T15, CD96 epitope peptide #7 (107-126) (human).
T15 peptide: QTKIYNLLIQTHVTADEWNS
The description is as above. Here is the method: as §1, §2

Assay [16] concerns the target T3, CD96 epitope peptide #17 (250-269). Nature of the assay: peptide ELISA, peptide coated. The protocol:
as §1, §2

For assay [17], the target named is T9, CD96 epitope peptide #5 (77-86 as …). Nature of the assay: peptide ELISA, peptide coated. Here is the method: as §1, §2
(ELISA stands for enzyme-linked immunosorbent assay.)

The target of assay [18] is T10, CD96 epitope peptide #1 (17-36). Nature of the assay: peptide ELISA, peptide coated. Here is the method:
as §1, §2

For assay [19], the target named is T13, CD96 epitope peptide #14 (211-230). Nature of the assay: peptide ELISA, peptide coated. The protocol: as §1, §2

Where a chain is given by its changes, count along the chain named.

B1: ch1720 (antibody, human IgG4 S228P, kappa, V domains shown)
VH: EFQLQQSGPELVKPGASVKISCKASAYSLTDYNMNWVKQSNGKSLEWIGVINPSYGISSYNQKFKGKATLTVDQSSSTAYMHLNSLTSEDSAVYYCARQLRLPGYFDVWGTGTTVTVSS
VL: DIKMTQSPSSKNASLGERVTITCKASQDINSYLNWFQQKPGKSPKTLIYRASRLVDGVPSRFSGSGSGQDYSLTISSLEYEDMGIYYCLKYDEFPYTFGGGTKLEIKR
notes: also called chimeric antibody corresponding to m1720
Turning to B1, the binding result in [1], in assay [2], in assay [3], in assay [4], in [5] and in assay [6] was “no binding” throughout. The binding result in assay [7], in [8], in assay [9], in [10], in assay [11] and in assay [12] was “no binding” throughout. Further, the binding result in assay [13], in [14] and in assay [15] was “no binding” each time.

B2: ch1718 (antibody, human IgG4 S228P, kappa, V domains shown)
VH: B1 VH with L29I, S58T, S59D, K63N, G66D, H82Q, R98I, T116I
VL: B1 VL with K11M, N12Y, S31N, S52N, L104V
notes: also called chimeric antibody corresponding to m1718
Regarding B2, the binding result in assay [16], in assay [17], in [18] and in [19] was “binds” in each case.

B3: ch1719 (antibody, human IgG4 S228P, kappa, V domains shown)
VH: QVQLKESGPGLVAPSQSLSITCTVSGFSLISYGVSWVRQPPGKGLEWLGVIWGDGNTNYHSVLISRLSIRKDDSKSQVFLKLNSLQTDDTATYYCAKNNYYGSRYGYPMDYWGQGTSVTVSS
VL: DIVMTQSHKFMSTSVGDRVSITCKATQDVGTAVAWYQQKPGHSPKLLIYWASTRHTGVPERFTGSGSGTDFTLTIDNVQSEDLADYFCQQYGSSVLTFGAGTKVELRR
notes: also called chimeric antibody corresponding to m1719
Consider B3, for which the binding result in assay [1], in assay [2], in [3], in [4], in assay [5] and in assay [6] was “no binding” in each case. For the same molecule, the binding result in assay [7], in assay [8], in assay [9], in assay [10], in [11] and in assay [12] was “no binding” throughout. The binding result in assay [13], in assay [14] and in assay [15] was “no binding” in each case.

B4: ch1721 (antibody, human IgG4 S228P, kappa, V domains shown)
VH: B3 VH with S35N, N56S, V62A, R70S, K81N, N99Y, Y100F, P108A, Y111S, T116I
VL: DIQMTQSPASLSAAVGETVTITCRASENIYSSLAWYQQKQGKSPQLLVYNAKTLIETVASRFSGSGSGTQYSLKINSLQPEDFGSFYCQHHYGTPYTFGGGTKLEIKR
notes: also called chimeric antibody corresponding to m1721
For B4, the binding result in assay [16], in assay [17], in assay [18] and in assay [19] was “binds” each time.
